Results published in the DeepSol protein solubility set.

Experiment: soluble on expression in E. coli; label from the status in PepcDB or PDB records

Soluble on expression in E. coli, not soluble:
PLPEACADMLWSNLGLLAAEQILPVLHNWARALKTDGLLFFTCFGRDTLAELKCRLKENGIESRSALFPDMHDLGDMLAENGFYDPVTDTAKLVLDYKKAETFWADMDTLGVWRAMAWNDENAARSCVGTIFEREGGLGITLETVYGHAVK
PQEKLKLLAFTGTKGKTTAAYFAYHMLKESYKPAMFSTMNTTLDGKTFFKSQLTTPESLDLFAMMAECVTNGMTHLIMEVSSQAYLVDRVYGLTFDVGVFLNISPDHIGPIEHPTFEDYFYHKRLLMENSRAVVINSGMDHFSFLADQVADQEHVFYGPLSDNQITTSQAFSFEAKGQLAGHYDIQLIGHFNQENAMAAGLACLRLGASLADIQKGIAKTRVPGR
PQLDEARTNGLMKTLFPHQVLSTIQASRILKTYNGVVIADSTGLGKTRVAINLAVMAINDGRNPLLIAPKSALETTWKDEMDKTHVHIDSKRSEYLSQHPDEAIKEIQGKDFIIVDEAHYFKSPGSNRYSVLRDLMAAGQKQIVLLTATP
QDSPNAIKAAVISSPMLGFYSGLLPKSIAKILVAIKLKFNNIISNTPWYFLGQKDYSPVNFTDNKLTHSIPRYQYFVDLYKKNKIIQLGGVTTHWLAQSIAAQKELFSKIVQLKTPILLLQASGDTVVCQQAQDDFCQQLHTLQPQSCPNGVPSNIDNAFHELFFETDDLRNKAITQSLAWFEQH
QGTDQYTILANRIANAVEQYRSQRALDASRERLSLFIDKSPLGVIEWDESFEVVQVNEKGEEILRRGESALAGKGFETLVPDSALDAVEETITALQEGSGGYYTVLDIETGDGEEIVCEWHNRIIREDGETVAIFSQFQEIT
QSKFKKYSKMPLASGMTGKDVAEKMLHDNGIYDVRVTSTPGMLTDHYNPANKTVNLSEGVYGSNSVAAAAVAAHECGHAVQHARAYAPLKMRS
QTVQSTSKGSDYIVAVTACTTGIAHTYMAEEALKKKAAEMGVGIKVETNGASGVGNKLTSSDIARAKGVIIAADKAVEMDRFDGKPLVSRPVADGIKKSEDLINIILDNKAQTY
QVKEVQIRFEKDALHNIMEMQYKNYQLSKENIDMVNQKYHDLKHQINILKTQSYTGKSTNYLEKMEREIRVYETQNKTGNQILDAVLTNKAMICQNKEIELKFIVDGEALSFMDDMDVSALFGNMLDNAIESAEKQQEKQKRLIWLYVTREKQFVRIRTENYCDEKIHFKNGMPVTTKKDRRLHGYGMKSIKSTVEKYHGSVVAAQENNWFELKILLPAGR
QWGSMRMPSDRISSGMAFSSVAQEAGFQNDDIILAVDGRPVDALASGFMRSVIQARQVEVLRQGRREIVHVPHDMMKRVLKANSGFMSIQVPFVIDSVMPQGTAYACQLKAGDSITAVNGKLMPDASDVIGAIRSHAGDTIALSIARAGEELTITLPVDTGGLIGVSLRPLDAIYTIDHIRYSLFEAIPAGIAQGMGTMRSYVSDMKYVFTKEGAGQIGGFGTLGSLFPASWNWPQFWAMTALLS

Soluble on expression in E. coli, soluble:
PNISDIIEQYLKQVLNMSDQDIVEIKRSEIANKFRCVPSQINYVINTRFTLERGYIVESKRGGGGYIRIMKVKTKSEAQLIDQLLELIDHRISQSSAEDVIKRLMEEKVISEREAKMMLSVMDRSVLYIDLPERDELRARMLKAMLTSLKYKLEI
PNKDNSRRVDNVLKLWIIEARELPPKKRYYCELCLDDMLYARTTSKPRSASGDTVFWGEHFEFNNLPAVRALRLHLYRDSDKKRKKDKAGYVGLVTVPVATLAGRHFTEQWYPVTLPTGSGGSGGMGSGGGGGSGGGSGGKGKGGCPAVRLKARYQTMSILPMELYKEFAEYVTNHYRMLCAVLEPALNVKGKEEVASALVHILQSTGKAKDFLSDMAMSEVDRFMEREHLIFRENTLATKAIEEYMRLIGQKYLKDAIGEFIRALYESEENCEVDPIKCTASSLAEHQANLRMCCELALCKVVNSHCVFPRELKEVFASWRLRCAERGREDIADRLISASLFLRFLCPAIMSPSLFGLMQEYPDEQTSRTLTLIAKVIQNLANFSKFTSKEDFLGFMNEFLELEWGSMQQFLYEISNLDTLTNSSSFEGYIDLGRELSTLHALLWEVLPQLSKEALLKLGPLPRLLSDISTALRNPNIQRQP
PQFGLFSKYRTPNCSQYRLPGCPRHFNPVCGSDMSTYANECTLCMKIREGGHNIKIIRNGPC
PREPVVNDEMCDVCEVWTAESLFPCRVCTRVFHDGCLRRMGYIQGDSAAEVTEMAHTETGWSCHYCDNINLLLTEE
PRVELEIPEDVDAEQDHLDITVEGDNGSVTRRLWYPDIDVSVDGDTVVIESDEDNAKTMSTIGTFQSHIENMFHGVTEGWEYGMEVFYSHFPMQVNVEGDEVVIENFLGEKAPRRTTIHGDTDVEIDGEELTVSGPDIEAVGQTAADIEQLTRINDKDVRVFQDGVYITRKPNRGDA
PTHIAIGIYFNPEIAPAPFISLIETNQCALAVRKYANEVGIPTVRDVKLARKLYKTHTKYSFVDFEHLDEVLRLIVWLEQVENTHLEHHHHHH
PVPRTCWIGPWKKNLAQGKITLKLINWIKKAELKNQPVLIFFPEIEAMNQFAEALVNYDFTRPVTVHSADQLRKEKVEWLREGKIKLLLTTTILERGVTFKDVQVAVFGSEGRIFTEAALVQIAGRAGRKLTHPTGDVCFFHYGKTTEMNRAITHIKKMNQLGFKEG
QDKPVFVYRLIARGTVEEKIQHLQQEKAALADGLFSEGNGDGWKLDEADIDAL
QIKSQGCRISRTFLLICSRGRKQRMKDSENKGASSPDMEPSYGGGLFDMVKGGAGRLFSNLKDNLKDTLKDTSSRVIQSVTSYTKGDLDFTYVTSRIIVMSFPLDNVDIGFRNQVDDIRSFLDSRHLDHYTVYNLSPKSYRTAKFHSRVSECSWPIRQAPSLHNLFAVCRNMYNWLLQNPKNVCVVHCLDGRAASSILVGAMFIFCNLYSTPGPAIRLLYAKRPGIGLSPSHRRYLGYMCDLLADKPYRPHFKPLTIKSITVSPIPFFNKQRNGCRPYCDVLIGETKIYSTCTDFERMKEYRVQDGKIFIPLNITVQGDVVVSMYHLRSTIGSRLQAKVTNTQIFQLQFHTGFIPLDTTVLKFTKPELDACDVPEKYPQLFQVTLDVELQPHDKVIDLTPPWEHYCTKDVNPSILFSSHQEHQDTLALGGQAPIDIPPDNPRHYGQSGFFASLCWQDQKSEKSFCEEDHAALVNQESEQSDDELLTLSSPHGNANGDKPHGVKKPSKKQQEPAAPPPPEDVDLLGLEGSAMSNSFSPPAAPPTNSELLSDLFGGGGAAGPTQAGQSGVEDVFHPSGPASTQSTPRRSATSTSASPTLRVGEGATFDPFGAPSKPSGQDLLGSFLNTSSASSDPFLQPTRSPSPTVHASSTPAVNIQPDVSGGWDWHAKPGGFGMGSKSAATSPTGSSHGTPTHQSKPQTLDPFADLGTLGSSSFASKPTTPTGLGGGFPPLSSPQKASPQPMGGGWQQGGAYNWQQPQPKPQPSMPHSSPQNRPNYNVSFSAMPGGQNERGKGSSNLEGKQKAADFEDLLSGQGFNAHKDKKGPRTIAEMRKEEMAKEMDPEKLKILEWIEGKERNIRALLSTMHTVLWAGETKWKPVGMADLVTPEQVKKVYRKAVLVVHPDKATGQPYEQYAKMIFMELNDAWSEFENQGQKPLY
QIQLTQSPSSLSASVGDRVTITCSASSSVNSSALFWYQQKPGKAPKPWIYLTSNLASGVPSRFSGSGSGTDYTLTISSLQPEDFATYYCQQISGNPWTFGQGTKVEIKRADAAPTVSIFPPSSEQLTSGGASVVCFLNNFYPKDINVKWKIDGSERQNGVLNSWTDQDSKDSTYSMSSTLTLTKDEYERHNSYTCEATHKTSTSPIVKSFNRNEC
QLTPTFYDNSCPNVSNIVRDTIVNELRSDPRIAASILRLHFHDCFVNGCDASILLDNTTSFRTEKDAFGNANSARGFPVIDRMKAAVESACPRTVSCADLLTIAAQQSVTLAGGPSWRVPLGRRDSLQAFLDLANANLPAPFFTLPQLKDSFRNVGLNRSSDLVALSGGHTFGKNQCRFIMDRLYNFSNTGLPDPTLNTTYLQTLRGLCPLNGNLSALVDFDLRTPTIFDNKYYVNLEEQKGLIQSDQELFSSPNATDTIPLVRSFANSTQTFFNAFVEAMDRMGNITPLTGTQGQIRLNCRVVNSNSLLHDMVEVVDFVSSM
QQEKEFLESYPQNCPPDALPGTPGNLDSAQEKALAELRKLLEDAGFIERLDDSTLLRFLRARKFDVQLAKEMFENCEKWRKDYGTDTILQDFHYDEKPLIAKFYPQYYHKTDKDGRPVYFEELGAVNLHEMNKVTSEERMLKNLVWEYESVVQYRLPACSRAAGHLVETSCTIMDLKGISISSAYSVMSYVREASYISQNYYPERMGKFYIINAPFGFSTAFRLFKPFLDPVTVSKIFILGSSYQKELLKQIPAENLPVKFGGKSEVDESKGGLYLSDIGPWRDPKYIGPEGEAPE
QQFPNECQLDQLNALEPSHVLKAEAGRIEVWDHHAPQLRCSGVSFVRYIIESKGLYLPSFFSTAKLSFVAKGEGLMGRVVPGCAETFQDSSVFQPGGGSPFGEGQGQGQQGQGQGHQGQGQGQQGQQGQQGQQSQGQGFRDMHQKVEHIRTGDTIATHPGVAQWFYNDGNQPLVIVSVLDLASHQNQLDRNPRPFYLAGNNPQGQVWIEGREQQPQKNILNGFTPEVLAKAFKIDVRTAQQLQNQQDNRGNIIRVQGPFSVIRPPLRSQRPQEEVNGLEETICSARCTDNLDDPSNADVYKPQLGYISTLNSYDLPILRFLRLSALRGSIRQNAMVLPQWNANANAVLYVTDGEAHVQVVNDNGDRVFDGQVSQGQLLSIPQGFSVVKRATSEQFRWIEFKTNANAQINTLAGRTSVLRGLPLEVISNGYQISLEEARRVKFNTIETTLTHSSGPASYGGPRKADA
QVQLQESGGGLVQAGDSLKLSCEASGDSIGTYVIGWFRQAPGKERIYLATIGRNLVGPSDFYTRYADSVKGRFAVSRDNAKNTVNLQMNSLKPEDTAVYYCAAKTTTWGGNDPNNWNYWGQGTQVTVSS
QVQLQESGGGLVQAGGSLRLSCAASGSIFSINSMDWDRQAPGKQRELVATITSGGSTNYADSVKGRFTISRDNAKNTVYLQMNSLKPEDTAVYYCNANVKTWAGMTRDYWGQGTQVTVSSHHHHHH
QVQLQQPGTELVKPGASVKLSCKASGYTFTGFWIHWVKQRPGQGLEWIGHINPGNGGTNYNEKFKRMATLTVDKSSSTAYMQLSSLTSEDSAVYYCARSYSNYVRAMDYWGQGTSVTVSSAKTTAPSVYPLVPVCGGTTGSSVTLGCLVKGYFPEPVTLTWNSGSLSSGVHTFPALLQSGLYTLSSSVTVTSNTWPSQTITCNVAHPASSTKVDKKIEP
QVRQSPQSLTVWEGETTILNCSYEDSTFDYFPWYRQFPGKSPALLIAISLVSNKKEDGRFTIFFNKREKKLSLHITDSQPGDSATYFCAATGSFNKLTFGAGTRLAVSPY
RCPKGSKAYGSHCYALFLSPKSWTDADLACQKRPSGNLVSVLSGAEGSFVSSLVKSIGNSYSYVWIGLHDPTQGTEPNGEGWEWSSSDVMNYFAWERNPSTISSPGHCASLSRSTAFLRWKDYNCNVRLPYVCKFTD
